{"source": "the nanobody polyreactivity screen of Harvey et al. (2022)", "data": [{"assay": "yeast display, Sf9 membrane polyspecificity reagent, FACS + sequencing; frameworks hold sequencing errors", "in_short": "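After 36–48 hours of galactose induction, yeast (Saccharomyces cerevisiae BJ5465) displaying a synthetic nanobody library were stained at 4 °C for 1 hour with 10% biotinylated, detergent-solubilized Sf9 membrane reagent. Streptavidin microbeads enriched the stained cells before FACS sorting into low and high (top ~1%) gates on anti-HA and streptavidin fluorescence. Each clone's polyreactivity label reflects its gate of origin.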", "values": [{"sequence": "QVQLVESGGGLVQAGGSLRLSCAASGLTFGTNAMGWYRQAPGKERELVAAISTSSGSTYYADSVKGRFTISRDNAKNTVYLQMNSLKPEDTAVYYCAAVTVTKLSYYRYYYWGQGTQVTVSS", "polyreactivity (PSR sort gate)": "low polyreactivity"}, {"sequence": "QVQLVESGGGLVQAGGSLRLSCAASGLTFGVYAMGWYRPAPGKERELVAAITATGGSTYYADSVKGRFTISRDNAKNTVYLQMNSLKPEDTAVYYCAKPDFYRMGYWGQGTQVTVSS", "polyreactivity (PSR sort gate)": "low polyreactivity"}, {"sequence": "QVQLVESGGGLVQAGGSLRLSCAASGLTFGWYAMGWYRQAPRKERELVAAISWSGSTTYYADSVKGRFTISRDNAKNTVYLQMNSLKPEDTAVYYCAADVSTRPYGYYYWGQGTQVTVSS", "polyreactivity (PSR sort gate)": "high polyreactivity"}, {"sequence": "QVQLVESGGGLVQAGGSLRLSCAASGLTFHPYAMGWYRQAPGKERELVAAISSRGTSTYYADSVKGRFTISRDNAKNTVYLQMNSLKPEDTAVYYCAARYRLYYYFRFDWGQGTQVTVSS", "polyreactivity (PSR sort gate)": "high polyreactivity"}, {"sequence": "QVQLVESGGGLVQAGGSLRLSCAASGLTFHSYAMGWYRQAPGKERELVAAINYSGGRTDYADSVKGRFTISRDNALKSVYLQMNSLQPADTAVYFCAAQRASAYYCGQGTQVTVSS", "polyreactivity (PSR sort gate)": "high polyreactivity"}, {"sequence": "QVQLVESGGGLVQAGGSLRLSCAASGLTFIEYAMGWYRQAPGKERELVAAISSGGRTYYADSVKGRFTISRDNPKNTVYLQMNSLKPEDTAVYYCNDRGYRRWYNYWGQGTQVTVSS", "polyreactivity (PSR sort gate)": "high polyreactivity"}, {"sequence": "QVQLVESGGGLVQAGGSLRLSCAASGLTFIINDMGWYRQAPGKERELVAGITNGGSTYADSVKGRFTISRDNAKNTVYLQMNCLKPEDTAVYYCAVPWYDFARSIQVDEYDYWGQGTQVTVSS", "polyreactivity (PSR sort gate)": "low polyreactivity"}, {"sequence": "QVQLVESGGGLVQAGGSLRLSCAASGLTFIKYAMGWYRQAPGKERELVADITSSGGTTYYADSVKGRFTISRDNAKNTVYLQMNSLKPEDTAVYYCAAGTRTGMNWGQGTQVTVSS", "polyreactivity (PSR sort gate)": "high polyreactivity"}, {"sequence": "QVQLVESGGGLVQAGGSLRLSCAASGLTFIKYTMGWSRQAPGKERELVATIRASTGSTYYADSVKGRFTISRDNAKNTVYLQMNSLKPEDTAVYYCATRSYPPYYGLYGGRAYNYWGQGTQVTVSS", "polyreactivity (PSR sort gate)": "high polyreactivity"}, {"sequence": "QVQLVESGGGLVQAGGSLRLSCAASGLTFIPNAMGWYRQAPGKERELVAAISGTGGSTYYADSVKGRFTISRDNAKNTVYLQMNSLKPEDTAVYYCAARRRYKSGYWGQGTQVTVSS", "polyreactivity (PSR sort gate)": "high polyreactivity"}, {"sequence": "QVQLVESGGGLVQAGGSLRLSCAASGLTFISYDMGWYRQAPGKERELVAAISSGGVLPNYADSVKGRFTISRDNAKNTVYLQMNSLKPEDTAVYYCNADTPTWPLDYWGQGTQVTVSS", "polyreactivity (PSR sort gate)": "low polyreactivity"}, {"sequence": "QVQLVESGGGLVQAGGSLRLSCAASGLTFKDNAMGWYRQAPGKERELVAAISKGGGSTFYADSVKGRFTISRDNAKNTVYLQMNSLKPEDTAVYYCNADVGYRGGEEDYWGQGTQVTVSS", "polyreactivity (PSR sort gate)": "low polyreactivity"}, {"sequence": "QVQLVESGGGLVQAGGSLRLSCAASGLTFKKYAMGWYRQAPGKERELVAAISRGGSTNYADSVKGRFTISRDNAKNTVYLQMNSLKPDDTAVYYCAAEGYWHVYADYYLEDYYWGQGTQVTVSS", "polyreactivity (PSR sort gate)": "high polyreactivity"}, {"sequence": "QVQLVESGGGLVQAGGSLRLSCAASGLTFKRYAMGWYRQAPGKERELVASITGNGGSTYYADSVKGRFTISRDNAKNTFYLQMNSLKPEDTAVYYCNVGYRGWSVNSWGQGTQVTVSS", "polyreactivity (PSR sort gate)": "high polyreactivity"}, {"sequence": "QVQLVESGGGLVQAGGSLRLSCAASGLTFKRYGMGWYIQAPGKERELVAAINWRGTSTYYADSVKGRFTISRDNAKNTVYLQMNSLKPEDTAVYYCAAVGPFYGPGEYWGQGTQVTVSS", "polyreactivity (PSR sort gate)": "high polyreactivity"}, {"sequence": "QVQLVESGGGLVQAGGSLRLSCAASGLTFKYYAMGWYRQAPGKERELVAAISASGGRTSYADSVKGRFTISRDNAKNTFYLQMNSLKPEDTAVYYCNADITSSGPKSDYWGQGTQVTVSS", "polyreactivity (PSR sort gate)": "high polyreactivity"}, {"sequence": "QVQLVESGGGLVQAGGSLRLSCAASGLTFKYYAMGWYRQAPGKERELVAAITSTGGRTYYADSVKGRFTISRDNAKNTVYLQMNSLKPEDTAFYYCAAYYVGSSKYDSWGQGTQVTVSS", "polyreactivity (PSR sort gate)": "low polyreactivity"}, {"sequence": "QVQLVESGGGLVQAGGSLRLSCAASGLTFKYYAMGWYRQAPGKERELVAIISFGGGSTYYADSVKGRFTISRDNAKNTVYLQMNSLKPEDTAVYYCNARLLFKYGYWGQGTQVTVSS", "polyreactivity (PSR sort gate)": "high polyreactivity"}, {"sequence": "QVQLVESGGGLVQAGGSLRLSCAASGLTFLFYAMGWYRQAPGKERELVASIRWSDGRTYYADSVKGRFTISRDNAKNTVYLQMNSLKPEDTAVYYCAVVPAYVYLNREYYWGQGTQVTVSS", "polyreactivity (PSR sort gate)": "high polyreactivity"}, {"sequence": "QVQLVESGGGLVQAGGSLRLSCAASGLTFLNNAMGWYRQAPVKERELVAAISVGGSTNYADSVKGRFTISRDNAKNTVYLQMNSLKPEDTAVYYCAAVYTSASYGSWGQGTQVTVSS", "polyreactivity (PSR sort gate)": "low polyreactivity"}, {"sequence": "QVQLVESGGGLVQAGGSLRLSCAASGLTFLYYAMGWYRQAPGKERELVASISRGSNTNYADSVKGRFTISRDNAKNTVYLQMNSLKPEDTAVYYCAVDRRPYSGHGYDYWGQGTQVTVSS", "polyreactivity (PSR sort gate)": "high polyreactivity"}, {"sequence": "QVQLVESGGGLVQAGGSLRLSCAASGLTFNRYAMGCYRQAPGKEREFVAAISVRSGSTYYADSVKGRFTISRDNAKNTVYLQMNSLKPEDTAVYYCAAKIRKDYSIQGYDYWGQGTQVTVSS", "polyreactivity (PSR sort gate)": "high polyreactivity"}, {"sequence": "QVQLVESGGGLVQAGGSLRLSCAASGLTFNYYAMGWSRPAPGKERELVAAISSDGRTDYADSVKGRFTISRDNAKNTVYLQMNSLKPEDTAVSYCAASWYRWGKSWRQYDYWGQGTQVTVSL", "polyreactivity (PSR sort gate)": "low polyreactivity"}, {"sequence": "QVQLVESGGGLVQAGGSLRLSCAASGLTFPHNAMGWYRQAPGKERELVAAITSSGGSTYYADSVKGRFTISRDNAKNTVYIQMNSLKPEDTAVYYCAAKRKPRPSYRYGYWGQGTQVTVSS", "polyreactivity (PSR sort gate)": "high polyreactivity"}, {"sequence": "QVQLVESGGGLVQAGGSLRLSCAASGLTFPIYAMGWYRQAPGKEREFVAVNTTSGGSTYYADSVKGRFTISRDNAKNTVYLQMNILKPEDTAVYYCNARPEYTYWPGYIYWGEGTQVTVSS", "polyreactivity (PSR sort gate)": "high polyreactivity"}, {"sequence": "QVQLVESGGGLVQAGGSLRLSCAASGLTFPNNGMGWYRQAPGKERELVAAIRSSGGSTYYADSVKGRFTISRDNAKNTVYLQMNSLKPEDTAVYYCNARRRGGYVGRPRYPVAAYDYWGQGTQVTVSS", "polyreactivity (PSR sort gate)": "low polyreactivity"}, {"sequence": "QVQLVESGGGLVQAGGSLRLSCAASGLTFPPNAMGWYRQAPGKEREFVAVISSGGGSTYYADSVKGRFTISRDNAKNTVYLQMNSLKPEDTAVYYCNTYYWYSGSPYDYWGQGTQVTVSS", "polyreactivity (PSR sort gate)": "low polyreactivity"}, {"sequence": "QVQLVESGGGLVQAGGSLRLSCAASGLTFPQYAMGWYRQAPGKERELVAAISKTGGSTYYADSVKGRFTISRDNAKNTVYLQMNSLKPEDTAVYYCAAVESGDRGQRINYWGQGTQVTVAS", "polyreactivity (PSR sort gate)": "high polyreactivity"}, {"sequence": "QVQLVESGGGLVQAGGSLRLSCAASGLTFPRYAMGWYRQAPGIERELVAAISYRGSRTYYADSVKGRFTISRDNAKNTVYLQMNSLKPEDSAVYYCNKVRPGYGVTYLVGYWGQGTQVTVSS", "polyreactivity (PSR sort gate)": "high polyreactivity"}, {"sequence": "QVQLVESGGGLVQAGGSLRLSCAASGLTFPSNAMGWYRPAPGKERELVAAISKRGGRTYYADSVKGRFTISRDNAKNTVYLQMNSLKPEDTAVYYCATPYAYPGTVQYAGYNYWGQGTQVTVSS", "polyreactivity (PSR sort gate)": "high polyreactivity"}, {"sequence": "QVQLVESGGGLVQAGGSLRLSCAASGLTFPWYAMGWYRQAPGKERELVAGISWSGGSTYYADSVKGRFTISRDNAKNTVYLQMNSLKPEDTAVYYCAARVWYYDYWGQGTQVTVSS", "polyreactivity (PSR sort gate)": "high polyreactivity"}, {"sequence": "QVQLVESGGGLVQAGGSLRLSCAASGLTFPYYAMGWYRQAPGKERELVAGISDSGDSTYYADSVKGRFTISRDNAKNTVYLQMNSLKPEDTAVYYCNAYFRYSYDYWGQGTQVTVSS", "polyreactivity (PSR sort gate)": "high polyreactivity"}, {"sequence": "QVQLVESGGGLVQAGGSLRLSCAASGLTFQGYAMGWYRQAPGKERELVAAISGSGGSTYYADSVKGRFTISRDNAKNTVYLQMNSLKPEDTAVYYCAADDSYYGIDYGYWGQGTQVTVSS", "polyreactivity (PSR sort gate)": "low polyreactivity"}, {"sequence": "QVQLVESGGGLVQAGGSLRLSCAASGLTFRANAMGWYRQAPGKERELVAAISWRGGGTYYADSVKGRFTISRDNAKNTVYLQMNSLKPEDTAVYYCDAKTQNAYYWGQGTQVTVSS", "polyreactivity (PSR sort gate)": "low polyreactivity"}, {"sequence": "QVQLVESGGGLVQAGGSLRLSCAASGLTFRAYAMGWYRLAPGKERELVAAITWSGTRTYYADSVKGRFTISRDNAKNTVYLQMNSLKPEDTAVYYCARGHTKVKYDYWGQGTQVTVSS", "polyreactivity (PSR sort gate)": "low polyreactivity"}, {"sequence": "QVQLVESGGGLVQAGGSLRLSCAASGLTFRDNAMGWYRQAPGTERELVATMNSGGSTDYADSVKGRFTISRHNAKNTVYLQMNSLKPEDTAVYYCAVYREYYDRGWYSIFYWYDYWGQGTQVTVSS", "polyreactivity (PSR sort gate)": "low polyreactivity"}, {"sequence": "QVQLVESGGGLVQAGGSLRLSCAASGLTFRGYAMGWYRQAPGKERELVAAITSSAGRTYYADSVKGRFTISRDNAKNTVYLQLNSLKQEDTAVYYCAAAHSYTTRWGYYKFNYWGQGTKVTVSS", "polyreactivity (PSR sort gate)": "high polyreactivity"}, {"sequence": "QVQLVESGGGLVQAGGSLRLSCAASGLTFRGYTMGWYRQAPGKERELVARITYSGGSTYYADSVKGRFTISRDNAKNTVYLQMNSLKPEDTAVYYCAKEIWRHWTGDYWGQGTQVTVSS", "polyreactivity (PSR sort gate)": "high polyreactivity"}, {"sequence": "QVQLVESGGGLVQAGGSLRLSCAASGLTFRPNAMGWYRQAPGKERELVAAITWRGGRTYYADSVKGRFTISRDNAKNTVYLQMNSLKPEDTAVYYCAADSPYRGRPGPLNYGGDYWGQGTQVTVSS", "polyreactivity (PSR sort gate)": "high polyreactivity"}, {"sequence": "QVQLVESGGGLVQAGGSLRLSCAASGLTFRSYAMGWYRPAPGKEREFVAAITGSGDTTYYADSVKGRFTISRDNAKNTVYLQMNSLKPEDTAVYYCNADRDYLWITLYEYWGQGTQVTVSS", "polyreactivity (PSR sort gate)": "high polyreactivity"}, {"sequence": "QVQLVESGGGLVQAGGSLRLSCAASGLTFRWYAMGWYRQAPGKERELVAAISWSGGSTYYADSVKGRFTISRDNAKNTVYLQMNSLKPEDTAVDYCAASYYADRSKAYDYWGQGTQLTVSS", "polyreactivity (PSR sort gate)": "high polyreactivity"}, {"sequence": "QVQLVESGGGLVQAGGSLRLSCAASGLTFRYNAMGWYRQAPGKERELVAAIRTSGGSTYYADSVKGRFTISRDNAKNTVYLQMNSLKPEDTAVYYCAARSKSYYGGYARGYWGQGTQVTVSS", "polyreactivity (PSR sort gate)": "high polyreactivity"}, {"sequence": "QVQLVESGGGLVQAGGSLRLSCAASGLTFRYYAMGWYREAPGKEREFVAAITSSGGSTDYADSVKGRFTISRDNAKNSVYLQMNSVKPDDTGVFYCAAATNTQESVPMYYWGQGTQVTVSS", "polyreactivity (PSR sort gate)": "low polyreactivity"}]}]}
